From patent publication US20210347873A1 (SHANGHAI PHARMAEXPLORER, published 2021)

Key:
biotinylated hBLyS-ECD [1] = target: T1, biotinylated hBLyS-ECD (human, UniProt Q9Y275 134-285, biotinylated with Biotin-X-X-NHS (molar ratio 7:1); sites not stated); experiment: blocking ELISA: biotinylated hBLyS-ECD on coated BAFF R, antibody 0.16 nM
T1 construct: also called biotinylated immunogen; BLyS protein
Method: (§1) BAFF R (purchased from R & D Systems) was aliquoted into 96-well ELISA plate at 50 ng per well, and the plate was sealed with plastic film and incubated overnight at 4° C. On the next day the plate was washed four times with the plate washing buffer [PBS buffer containing 0.05% (v/v) Tween20] and added with blocking solution [PBS buffer containing 0.05% (v/v) Tween20 and 1% (w/w) BSA], then blocked for 1 hour at room temperature. The blocking solution was removed and 50 μL per well of the lead antibodies prepared in Embodiment 1 and 2 were added followed by the addition of 50 μL per well of the biotinylated hBLyS-ECD prepared in Embodiment 2. After incubation for 1 hour at 37° C., the plate was washed four times with the plate washing buffer [PBS buffer containing 0.05% (v/v) Tween20]. 100 μL per well of HRP-labeled (horseradish peroxidase) avidin (purchased from Sigma) was added and incubated at 37° C. for 1 hour. The plate was then washed four times with the plate washing buffer [PBS buffer containing 0.05% (v/v) Tween20]. 100 μL of TMB substrate was aliquoted into each well and after incubation for 5 minutes at room temperature, then 100 μL of stop solution (1.0 N HCl) was aliquoted into each well. A₄₅₀ₙₘ values were read with an ELISA plate reader (SpectraMax 384plus, Molecular Device) and the results were shown in FIGS. 9A-9B and Table 15. It was shown in Table 15 that the binding of BLyS protein to its receptor BAFF R could be blocked by the BLyS antibody.
Target sequence in this assay (Q9Y275 134-285): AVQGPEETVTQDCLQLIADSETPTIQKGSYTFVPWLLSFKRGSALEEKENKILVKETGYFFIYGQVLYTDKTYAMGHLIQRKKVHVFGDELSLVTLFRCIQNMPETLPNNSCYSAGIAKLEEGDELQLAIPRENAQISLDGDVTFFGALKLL

biotinylated hBLyS-ECD [2] = target: T1, biotinylated hBLyS-ECD; experiment: blocking ELISA: biotinylated hBLyS-ECD on coated BAFF R, antibody 0.0064 nM
Method: BLyS antibody blocking the binding of the BLyS protein to its receptor BAFF R was detected by the receptor-ligand binding assay of BLyS protein.
as §1
Target sequence in this assay (Q9Y275 134-285): as above

biotinylated hBLyS-ECD [3] = target: T2, biotinylated hBLyS-ECD (human, UniProt Q9Y275 134-285, biotinylated with Biotin-X-X-NHS (molar ratio 7:1), sites not stated); experiment: ELISA, biotinylated hBLyS-ECD captured on streptavidin; antibody 0 nM (blank)
T2 construct: The hBLyS-ECD of Embodiment 1 after biotinylation (Embodiment 2); also called biotinylated immunogen; BLyS protein; not shown: His tag of the pCPC vector
T2 sequence (Q9Y275 134-285): as above
Method: (§2) Streptavidin was first diluted to a final concentration of 1.0 μg/mL with PBS, and then 50 μL of diluted streptavidin per well was aliquoted into 96-well ELISA plate, which was subsequently sealed with plastic film and incubated at 4° C. overnight. On the next day the plate was washed four times with the plate washing buffer [PBS buffer containing 0.05% (v/v) Tween20] and added with the blocking solution [PBS buffer containing 0.05% (v/v) Tween20 and 1% (w/w) BSA] and blocked for 2 hours at 37° C. The blocking solution was removed, the biotinylated hBLyS-ECD prepared in Embodiment 2 was diluted with PBS to a final concentration of 50 ng/mL and then aliquoted into the 96-well ELISA plate at 50 μL per well and incubated for 1 hour at 37° C. After rinsing the plate four times with the plate washing buffer [PBS buffer containing 0.05% (v/v) Tween20], 100 μl of the purified lead antibody harvested in Embodiment 1 and 2 was pipetted into each well. After incubation for 1 hour at 37° C., the plate was rinsed four times with the plate washing buffer [PBS buffer containing 0.05% (v/v) Tween20]. HRP-labeled (horseradish peroxidase) secondary antibody (purchased from Sigma) was added in and incubated at 37° C. for 1 hour. The plate was then rinsed four times with the plate washing buffer [PBS buffer containing 0.05% (v/v) Tween20]. 100 μL of TMB substrate was aliquoted into each well and after incubation for 5 minutes at room temperature, 100 μL of stop solution (1.0 N HCl) was aliquoted into each well. A₄₅₀ₙₘ values were read via an ELISA plate reader (SpectraMax M5e purchased from Molecular Devices) and the results were shown in FIGS. 5A-5B and Table 10.

biotinylated hBLyS-ECD [4] = target: T2, biotinylated hBLyS-ECD; experiment: ELISA, biotinylated hBLyS-ECD captured on streptavidin; antibody 2.67 nM
Method: as §2

biotinylated hBLyS-ECD [5] = target: T1, biotinylated hBLyS-ECD; experiment: competitive ELISA on biotinylated hBLyS-ECD; competitor 2-1G11
Method: (§3) The purified human BLyS antibody and hybridoma antibody were subjected to competitive enzyme-linked immunosorbent assay and the epitopes binding by different antibodies were analyzed.
(§4) Purified BLyS antibody was first diluted to a final concentration of 1.0 μg/mL with PBS, then aliquoted into a 96-well ELISA plate at 50 μL per well, and the plate was subsequently sealed with plastic film and incubated at 4° C. overnight. On the next day the plate was rinsed four times with the plate washing buffer [PBS buffer containing 0.05% (v/v) Tween20] and mixed with blocking solution [PBS buffer containing 0.05% (v/v) Tween20 and 1% (w/w) BSA], and then blocked at 37° C. for 1 hour. The blocking solution was removed, and the competitive antibody and IgG control were diluted to a final concentration of 40 μg/mL with PBS and then aliquoted into the 96-well ELISA plate at 50 μL per well. The biotinylated hBLyS-ECD was then diluted with PBS to a final concentration of 2 ng/mL and pipetted into the 96-well ELISA plate at 50 μL per well. The final concentration of competitive antibody and hBLyS-ECD was 20 μg/mL and 1 ng/mL, respectively. After incubation at 37° C. for 1 hour, the plate was rinsed four times with the plate washing buffer [PBS buffer containing 0.05% (v/v) Tween20]. 100 μL per well of HRP-labeled (horseradish peroxidase) streptavidin (purchased from Sigma) was added into the plate and the plate was incubated at 37° C. for 1 hour. The plate was then washed four times with the plate washing buffer [PBS buffer containing 0.05% (v/v) Tween20]. 100 μL of TMB substrate was aliquoted into each well and after incubation at room temperature for 5 minutes, 100 μL of stop solution (1.0 N HCl) was aliquoted into each well. A₄₅₀ₙₘ values were read by an ELISA plate reader (SpectraMax M5e, purchased from Molecular Device) and the results were shown in Tables 18A-18B. […] The data shown in the table is the inhibitory rate (%) of the binding level of the original antibody to hBLyS-ECD after addition of the competitive antibody.
Target sequence in this assay (Q9Y275 134-285): as above

biotinylated hBLyS-ECD [6] = target: T1, biotinylated hBLyS-ECD; experiment: competitive ELISA on biotinylated hBLyS-ECD; competitor L1D12
Method: as §3, §4

B1: 111D10D6G3 (antibody, V domains shown)
VH: QVQLQQPGAELVKPGASVKMSCKASGYTFTRHWITWVKQRPGQGLEWIGDIFPGSGSINYNEKFKSEATLTVEKSSSTAYMQLSSLTSEDSAVYYCARGDVDVWGTGTTVTVSS
VL: DIQMTQSPSSLSASLGERVSLTCRASQEIRGYLSWLQQKPNGTIKRLIYAASTLDSGVPKRFSATRSGSDFSLTISSLESEDFADYYCLQYASYPFTFGSGTKLEIK
notes: Mouse hybridoma monoclonal antibody purified on Protein G
OD450 nm (biotinylated hBLyS-ECD [1]): 0.911 OD450 nm | OD450 nm (biotinylated hBLyS-ECD [2]): 1.29 OD450 nm

B2: 111D10D6G3 (antibody, V domains shown)
VH: QVQLQQPGAELVKPGASVKMSCKASGYTFTRHWITWVKQRPGQGLEWIGDIFPGSGSINYNEKFKSEATLTVEKSSSTAYMQLSSLTSEDSAVYYCARGDVDVWGTGTTVTVSS
VL: DIQMTQSPSSLSASLGERVSLTCRASQEIRGYLSWLQQKPNGTIKRLIYAASTLDSGVPKRFSATRSGSDFSLTISSLESEDFADYYCLQYASYPFTFGSGTKLEIK
notes: Mouse hybridoma antibody purified on Protein G
OD450 nm (biotinylated hBLyS-ECD [3]): 0.0617 | OD450 nm (biotinylated hBLyS-ECD [4]): 1.78

B3: L1D12 (antibody, V domains shown)
VH: QVQLVQSGGGLVQPGGSLRLSCAASGFTVSSNYMSWVRQAPGKGLEWVSVIYSGGSTYYADSVKGRFTISRDNSKNTLYLQMNSLRAEDTAVYYCARGFHDILTGYGMDVWGQGTTVTVSS
VL: SSELTQDPAVSVALGQTVRITCQGDSLRNYYAGWYQQKPGQAPVLVIYGKNNRPSGIPDRFSGSSSGNTASLTITGTQAEDEADYYCSSRDNSGTHLVEFGGGTKLTVL
notes: From a human naive scFv phage library; also called human BLyS antibody L1D12; LID12
inhibitory rate (%) (biotinylated hBLyS-ECD [5]): 94% | inhibitory rate (%) (biotinylated hBLyS-ECD [6]): 94%

B4: L1D12 (antibody, human IgG1, V domains shown)
VH: QVQLVQSGGGLVQPGGSLRLSCAASGFTVSSNYMSWVRQAPGKGLEWVSVIYSGGSTYYADSVKGRFTISRDNSKNTLYLQMNSLRAEDTAVYYCARGFHDILTGYGMDVWGQGTTVTVSS
VL: SSELTQDPAVSVALGQTVRITCQGDSLRNYYAGWYQQKPGQAPVLVIYGKNNRPSGIPDRFSGSSSGNTASLTITGTQAEDEADYYCSSRDNSGTHLVEFGGGTKLTVL
notes: also called LID12
OD450 nm (biotinylated hBLyS-ECD [3]): 0.11 | OD450 nm (biotinylated hBLyS-ECD [4]): 1.65

B5: 8E7D9C7F5 (antibody, V domains shown)
VH: QVQLQQSGVELARPGASVKLSCKASGYTFTSYGISWVKQRTGQALEWIGEIYPRSGNTYYNEKFKGKATLTADKSSSTAYMELRSLTSEDSAVYFCARSGPITTLVATDYGMDYWGQGTSVTVSS
VL: DIVLTQSPASLAVSLGQRATISCRASKSVSTSSYSYMHWYQQKPGQPPKLLIKFASNLESGVPARFSGSGSGTDFTLNIHPVEEEDAATYYCQHSREFPYTFGGGTKLEIK
notes: as for B1
OD450 nm (biotinylated hBLyS-ECD [1]): 0.61 OD450 nm | OD450 nm (biotinylated hBLyS-ECD [2]): 1.38 OD450 nm

B6: 97A3C2H4 (antibody, V domains shown)
VH: EVKLVESGGGLVQPGGSLKLSCAASGFTFSTYTMSWVRQTPEKRLEWVAYISYGGGSTSYPDTVKGRFTISRDNAKNTLYLQMSSLKSEDTAIYYCTRHVTVVENSMDYWGQGTSVTVSS
VL: DILLTQSPDILSVSPGERVSFSCRASQSIGTSIHWYQQRTNGSPRLLIKYVSESFSGTPSRFSGSGSGTAFTLTINSVESEDIADYYCQQTHSWPWTFGGGTKLEIK
notes: as for B1
OD450 nm (biotinylated hBLyS-ECD [1]): 0.816 OD450 nm | OD450 nm (biotinylated hBLyS-ECD [2]): 1.21 OD450 nm

B7: 97A3C2H4 (antibody, V domains shown)
VH: EVKLVESGGGLVQPGGSLKLSCAASGFTFSTYTMSWVRQTPEKRLEWVAYISYGGGSTSYPDTVKGRFTISRDNAKNTLYLQMSSLKSEDTAIYYCTRHVTVVENSMDYWGQGTSVTVSS
VL: DILLTQSPDILSVSPGERVSFSCRASQSIGTSIHWYQQRTNGSPRLLIKYVSESFSGTPSRFSGSGSGTAFTLTINSVESEDIADYYCQQTHSWPWTFGGGTKLEIK
notes: as for B2
OD450 nm (biotinylated hBLyS-ECD [3]): 0.0603 | OD450 nm (biotinylated hBLyS-ECD [4]): 2.75

B8: 2-1G11 (antibody, V domains shown)
VH: EVQLVESRGGVVQPGRSLRLSCAASGFTFSSYGMHWVRQAPGKGLEWVAVISYDGSNKYYADSVKGRFTISRDNSKNTLYLQMNSLRAEDAAVYYCARDRVDILTGYSIYGMDVWGQGTTVTVSS
VL: EIVMTQSPATLSLSPGERATLSCRASQSVSSYLAWYQQKPGQAPRLLIYDASKRATGIPARFSGSGSGTDFTLTISSLEPEDFAVYYCQQRSNWPLTFGGGTKVEIK
notes: From a human naive scFv phage library; also called human BLyS antibody 2-1G11
inhibitory rate (%) (biotinylated hBLyS-ECD [5]): 82% | inhibitory rate (%) (biotinylated hBLyS-ECD [6]): 91%

B9: L9G7 (antibody, V domains shown)
VH: QIQLVQSGAEVKKPGASVKVSCKASGYTFTSYGISWVRQAPGQGLEWMGWISAYNGNTNYAQKLQGRVTMTTDTSTSTAYMELRSLRSDDTAVYYCARTYYDILTGYYYYGMDVWGQGTTVTVSS
VL: EIVLTQSPGTLSLSPGERATLSCRTSQSVDTYLAWYQQKPGQAPRLLIYDASNRATGIPARFSGSGSGTDFTLTISSLEPEDFAVYYCQQRSNWPLTFGGGTKVEIK
notes: From a human naive scFv phage library; also called human BLyS antibody L9G7
inhibitory rate (%) (biotinylated hBLyS-ECD [5]): 96% | inhibitory rate (%) (biotinylated hBLyS-ECD [6]): 97%

B10: L9G7 (antibody, human IgG1, V domains shown)
VH: QIQLVQSGAEVKKPGASVKVSCKASGYTFTSYGISWVRQAPGQGLEWMGWISAYNGNTNYAQKLQGRVTMTTDTSTSTAYMELRSLRSDDTAVYYCARTYYDILTGYYYYGMDVWGQGTTVTVSS
VL: EIVLTQSPGTLSLSPGERATLSCRTSQSVDTYLAWYQQKPGQAPRLLIYDASNRATGIPARFSGSGSGTDFTLTISSLEPEDFAVYYCQQRSNWPLTFGGGTKVEIK
OD450 nm (biotinylated hBLyS-ECD [3]): 0.071 | OD450 nm (biotinylated hBLyS-ECD [4]): 1.71
